From patent US12551583B2, “Radiolabeled ligands for targeted PET/SPECT imaging and methods of their use” (MEMORIAL SLOAN KETTERING CANCER CENTER, priority 2016, dated 2026)

Experiments:
tumor = conditions: in vivo; cited from earlier work
[1] = tested on: 4T1 orthotopic tumor-bearing BALB/c mice; assay: in vivo; conditions: mouse
Experimental: (§1) 4T1 orthotopic BALB/c mouse model. The cells were removed from the flasks, concentrated, and resuspended in minimal media for cell counting. The cells were then diluted to contain approximately 1 million cells in 30 μL of media (for orthotopic allografts). Following an MSKCC Institutional Animal Care and Use Committee approved protocol, 8-10 week old BALB/c mice (Charles River Laboratories, Wilmington, MA) were surgically implanted with one million 4T1 cancer cells into the first or the last mammary fat pad of the right side of the animal using aseptic surgical techniques and sterile staple closures while the mice were under anesthetic. Additionally, mice were given injections of meloxicam (24 h pain killer) in the scruff and bupivacaine intradermally prior to surgical incisions. One day post surgery, the mice were again given meloxicam and checked to ensure that the closure was healing. Two and three days post surgery, the mice were checked to ensure that the animals were healthy and recovering well from the surgery. Five to seven days post surgery, the staples were removed. Five to nine days post surgery, the mice were injected with 50-75 μCi (0.9-0.4 nmol) of the respective radiopharmaceutical for in vivo biodistribution or 500-600 μCi (9-11 nmol) for in vivo imaging. The mice receiving ^64Cu-NOTA-pHLIP were sacrificed at 1, 2, 4, 12, 24, 36, and 48 h; the mice receiving [^18F]—AlF-NOTA-pHLIP were sacrificed at 0.5, 1, 2, 4, 6 and 8 h. The 4T1 tumors in this study were purposely used 5-9 days after inoculation to ensure lower tumoral pH. Animal models. Animal studies were conducted according to MSKCC IACUC-approved animal protocol. 4T1 (orthotopic breast cancer allografts of 1×10^6 cells surgically implanted in the mammary fat pad) and B16-F10 (orthotopic melanoma allografts of 1×10^5 cells injected intradermally on the shoulder) tumors were orthotopically inoculated in media in female BALB/c and C57Bl/6 mice (Charles River Laboratories (CRL)), respectively. Additionally, PC3 (3×10^6 cells) or LNCaP (3-6×10^6 cells) tumors were subcutaneously xenografted on the shoulder of athymic nude male mice (CRL). Mice were used once tumor volumes were approximately 90-300 mm^3. In vivo animal PET imaging and biodistribution. Mice were injected with radiolabeled NOTA-pHLIP derivatives i.v. (500-700 μCi/mouse for PET or SPECT imaging studies and 25-100 μCi/mouse for biodistribution studies). All injections were less than 200 μL with <10% EtOH in sterile PBS. PET images were obtained with the mice under anesthesia in an Inveon PET-CT or microPET Focus 120 (Siemens) at 0.5-48 h p.i. All images were analyzed using ASIPro VM (Concorde Microsystems). SPECT images were obtained with the mice under anesthesia in a NanoSPECT/CT Plus at 4-24 h p.i. All SPECT images were reconstructed using HiSPECT and analyzed using InVivoScope. Dissections for ex vivo biodistribution were performed on mice after CO2 asphyxiation or cervical dislocation while anesthetized at reported time points. Weight of the syringe prior to injection and after injection was used to determine the mass of injectate. Activity of the syringe prior to injection and after injection was used to determine the percent of injectate administered. The mass injected was corrected by the percent of radioactivity injected. Four to five aliquots (10 μL) were weighed and counted as internal standards for each study. All of the collected organs were counted using an automatic gamma counter (Wizard 3″, PerkinElmer, Waltham, MA). The total injected dose was found as the mass injected dose×fraction radioactivity injected×internal standard average counts/g. The percent injected dose (% ID) was determined as the counts for the tissue×100/total injected dose. The % ID/g was calculated as the % ID/tissue weight. The average and standard deviation of the % ID and % ID/g was determined using normal methods (n−1) for each set of mice.

[2] = tested on: PC3 tumor-bearing male nude mice; conditions: mouse, in vivo
Experimental: (§2) PC3 shoulder nude mouse xenografts. The cells were removed from the flasks, concentrated, and resuspended in minimal media for cell counting. The cells were then diluted to contain approximately 3 million cells in 150 μL of 1:1 media and matrigel (for shoulder xenografts). Following an MSKCC Institutional Animal Care and Use Committee approved protocol, 150 μL of the cell suspension was injected subcutaneously in 6-9 week old nude male mice (CRL). Mice were used in studies at 3 weeks post inoculation. The mice were injected with 50-75 μCi (0.9-0.4 nmol) of the respective radiopharmaceutical for in vivo biodistribution or 500-600 μCi (9-11 nmol) for in vivo imaging. […]
(§3) In vivo animal PET imaging and biodistribution. […] All images were analyzed using ASIPro VM (Concorde Microsystems). […] All SPECT images were reconstructed using HiSPECT and analyzed using InVivoScope. […] The mass injected was corrected by the percent of radioactivity injected. Four to five aliquots (10 μL) were weighed and counted as internal standards for each study. All of the collected organs were counted using an automatic gamma counter (Wizard 3″, PerkinElmer, Waltham, MA). The total injected dose was found as the mass injected dose×fraction radioactivity injected×internal standard average counts/g. The percent injected dose (% ID) was determined as the counts for the tissue×100/total injected dose. […]

[3] = tested on: LNCaP tumor-bearing male nude mice; conditions: mouse, in vivo
Experimental: as §2, with “LNCaP shoulder” for “PC3 shoulder”, “approximately 3-6” for “approximately 3”, “matrigel (or” for “matrigel (for”, “in 6-8” for “in 6-9”, “at 3-8” for “at 3”
as §3

in vivo = conditions: female, BALB/c, mouse, iv, 50 uCi, total radioactivity, 4T1 tumoral uptake
Experimental: as §1

With CC(C)C[C@@H](NC(=O)[C@@H](CCC(=O)O)NC(=O)[C@@H](CC(C)C)NC(=O)[C@@H](CC(C)C)NC(=O)[C@@H](CC(C)C)NC(=O)[C@H](NC(=O)[C@@H](CCC(=O)O)NC(=O)[C@H](NC(=O)[C@H]1CCCN1C(=O)[C@@H](Cc1ccccc1)NC(=O)[C@@H](CC(C)C)NC(=O)[C@@H](Cc1c[nH]c2ccccc12)NC(=O)[C@@H](CCC(=O)O)NC(=O)[C@@H](CC(C)C)NC(=O)[C@@H](Cc1ccc(O)cc1)NC(=O)[C@@H](CCCNC(=N)N)NC(=O)[C@@H](C)NC(=O)[C@@H](Cc1c[nH]c2ccccc12)NC(=O)[C@H]1CCCN1C(=O)[C@@H](CC(N)=O)NC(=O)[C@@H](CCC(N)=O)NC(=O)[C@@H](CCC(=O)O)NC(=O)[C@@H](CCC(=O)O)NC(=O)[C@@H](CS)NC(=O)[C@@H](C)NC(=S)Nc1ccc(CC2CN(CC(=O)O)CCN(CC(=O)O)CCN2CC(=O)O)cc1)[C@H](C)O)[C@H](C)O)C(=O)O (single isomer, unassigned) [^64Cu-NOTA-Var7, metal not drawn] as the compound, how does the overall tumor uptake (tumor) read?
Its overall tumor uptake is 1.36±0.43 % ID/g.

What about the kidneys-to-large intestine ratio [1] of the same compound?
The kidneys-to-large intestine ratio was 0.32±0.07.

And the “biodistribution, Blood” value ([1]; iv, 4 h)?
Its value is 0.833 ± 0.068 % ID/g.

What about the “biodistribution, Bone” value ([1]; iv, 4 h) of the same compound?
The value was 0.229 ± 0.093 % ID/g.

What about the “biodistribution, Brain” value ([1]; iv, 4 h) of the same compound?
Its value is 0.042 ± 0.004 % ID/g.

What about the “biodistribution, Heart” value ([1]; iv, 4 h) of the same compound?
The value was 0.35 ± 0.04 % ID/g.

What about the “biodistribution, Kidneys” value ([1]; iv, 4 h) of the same compound?
The value was 6.790 ± 0.461 % ID/g.

And the “biodistribution, L. intestine” value ([1]; iv, 4 h)?
Its value is 7.78 ± 0.61 % ID/g.

What about the “biodistribution, Liver” value ([1]; iv, 4 h) of the same compound?
Its value is 0.739 ± 0.041 % ID/g.

And the “biodistribution, Lungs” value ([1]; iv, 4 h)?
The value was 0.996 ± 0.066 % ID/g.

What about the “biodistribution, Muscle” value ([1]; iv, 4 h) of the same compound?
The value was 0.118 ± 0.025 % ID/g.

And the “biodistribution, Pancreas” value ([1]; iv, 4 h)?
The value was 0.198 ± 0.043 % ID/g.

What about the “biodistribution, S. intestine” value ([1]; iv, 4 h) of the same compound?
The value was 0.307 ± 0.077 % ID/g.

What about the “biodistribution, Skin” value ([1]; iv, 4 h) of the same compound?
Its value is 0.563 ± 0.145 % ID/g.

And the “biodistribution, Spleen” value ([1]; iv, 4 h)?
Its value is 0.279 ± 0.016 % ID/g.

And the “biodistribution, Stomach” value ([1]; iv, 4 h)?
Its value is 0.300 ± 0.076 % ID/g.

And the “biodistribution, Tumor (4T1 tumoral uptake)” value ([1]; iv, 4 h)?
The value was 0.546 ± 0.075 % ID/g.

For CC(C)C[C@@H](NC(=O)[C@@H](CC(C)C)NC(=O)[C@@H](CC(=O)O)NC(=O)[C@@H](CC(C)C)NC(=O)[C@@H](CC(C)C)NC(=O)[C@@H](CC(C)C)NC(=O)[C@H](NC(=O)[C@@H](CC(=O)O)NC(=O)[C@H](NC(=O)[C@H]1CCCN1C(=O)[C@@H](Cc1ccccc1)NC(=O)[C@@H](CC(C)C)NC(=O)[C@@H](CC(C)C)NC(=O)[C@@H](CC(=O)O)NC(=O)[C@@H](CC(C)C)NC(=O)[C@@H](Cc1ccc(O)cc1)NC(=O)[C@@H](C)NC(=O)[C@@H](CCCNC(=N)N)NC(=O)[C@@H](Cc1c[nH]c2ccccc12)NC(=O)[C@H]1CCCN1C(=O)[C@@H](CC(N)=O)NC(=O)[C@@H](CCC(N)=O)NC(=O)[C@@H](CC(=O)O)NC(=O)[C@@H](CC(=O)O)NC(=O)[C@@H](CSC1CC(=O)N(CCNC(=O)CN2CCN(CC(=O)O)CCN(CC(=O)O)CC2)C1=O)NC(=O)[C@@H](C)N)[C@H](C)O)[C@H](C)O)C(=O)N[C@H](Cc1c[nH]c2ccccc12)C(=O)O (single isomer, unassigned) [^64Cu-NO2A-cysVar3, metal not drawn], which “tumor:bone ratio” value [2] is on record?
The value was 2.7±0.6.

And the “tumor:muscle ratio” value [2]?
Its value is 7.4±1.3.

What about the “tumor:bone ratio” value [3] of the same compound?
Its value is 4.2±1.7.

And the “tumor:muscle ratio” value [3]?
Its value is 6±2.

What about the tissue uptake at 24 h (in vivo) of the same compound?
The tissue uptake at 24 h was 19.2 ± 1.8 %ID/g.
